In patent publication US20250026849A1 (ARCELLX, published 2025):
Residue numbers refer to the chain shown, from its start.

T1: CD123 (Homo sapiens (Human), UniProt P26951 19-305, limits assumed)
T1 construct: The CD123 construct used in the ELISA is not described; also called CD123-Signal
T1 sequence: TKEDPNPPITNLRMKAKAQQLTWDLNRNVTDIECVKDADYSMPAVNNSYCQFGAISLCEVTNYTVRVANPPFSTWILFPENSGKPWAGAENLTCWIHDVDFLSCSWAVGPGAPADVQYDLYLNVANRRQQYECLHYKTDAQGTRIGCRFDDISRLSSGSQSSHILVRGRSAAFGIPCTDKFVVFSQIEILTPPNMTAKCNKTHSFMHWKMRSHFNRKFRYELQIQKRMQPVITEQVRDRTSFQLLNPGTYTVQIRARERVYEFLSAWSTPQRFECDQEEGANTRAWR

T2: BCMA (Homo sapiens (Human), UniProt Q02223 1-54, limits assumed)
T2 sequence: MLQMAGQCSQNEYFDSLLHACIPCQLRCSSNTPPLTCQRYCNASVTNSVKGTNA

B1: D domain of SEQ ID NO: 651 (designed binder)
chain: MGSWWEFNARLDAIEDRLMALGGSEAELAYFEDIIASFENILQQYKGKGNPEVEALWYEAYAIEKELNAYRHN
B2: D domain of SEQ ID NO: 653 (designed binder)
chain: MGSWNEFVIRLFAIDDRLYALGGSEAELAWFEDEIATFEYELQRYKGKGNPEVEALEYEAEAIVSELFAYRHN
B3: D domain of SEQ ID NO: 656 (designed binder)
chain: MGSWFEFETRLEAIDLRLWALGGSEAELATFEDVIAFFEDWLQFYKGKGNPEVEALKMEAWAIGEELHAYRHN
B4: D domain of SEQ ID NO: 650 (designed binder)
chain: MGSWDEFAMRLEAIQARLFALGGSEAELAIFEDEIAFFETMLQDYKGKGNPEVEALEYEAAAIEAELGAYRHN
B5: D domain of SEQ ID NO: 652 (designed binder)
chain: MGSWIEFWNRLEAIEERLYALGGSEAELAYFEDEIAEFEIYLQQYKGKGNPEVEALKHEAEAINKELMAYRHN
B6: D domain of SEQ ID NO: 654 (designed binder)
chain: MGSWYEFLARLYAIDERLWALGGSEAELATFEHWIADFEEQLQSYKGKGNPEVEALTDEAVAIGEELSAYRHN
B7: D domain of SEQ ID NO: 655 (designed binder)
chain: MGSWLEFETRLHAIDERLWALGGSEAELAEFEEHIAWFEEDLQFYKGKGNPEVEALDFEADAIGWELWAYRHN
B8: D domain of SEQ ID NO: 659 (designed binder)
chain: MGSWYEFENRLFAIEERLWALGGSEAELAWFEYEIANFEWGLQSYKGKGNPEVEALDNEAEAIDIELAAYRHN
B9: D domain of SEQ ID NO: 648 (designed binder)
chain: MGSWEEFHMRLIAIDERLWALGGSEAELAGFEESIAYFESQLQDYKGKGNPEVEALDYEAHAIWRELYAYRHN
B10: D domain of SEQ ID NO: 658 (designed binder)
chain: MGSWYEFEQRLEAIEWRLGALGGSEAELATFEEDIADFEEWLQEYKGKGNPEVEALQYEAYAIAEELHAYRHN
B11: D domain of SEQ ID NO: 649 (designed binder)
chain: MGSWWEFKYRLDAICFRLAALGGSEAELASFEDEIAYFEEDLQGYKGKGNPEVEALDYEALAIWDELAAYRHN
B12: D domain of SEQ ID NO: 657 (designed binder)
chain: MGSWHEFWQRLEAIEGRLWALGGSEAELADFESLIADFEEQLQEYKGKGNPEVEALMAEAEAIDNELRAYRHN
B13: D-domain SEQ ID NO: 79 (designed binder)
chain: MGSWVEFKARLEAISSRLTALGGSEAELAAFEKEIAAFESELQAYKGKGNPEVEELRYSAALIRVYLQAYRHN
B14: D-domain SEQ ID NO: 113 (designed binder)
chain: MGSWNEFDNRLQAIWDRLHALGGSEAELAAFEKEIAAFESELQAYKGKGNPEVEELRFHAAMIRITLQAYRHN
B15: D-domain SEQ ID NO: 114 (designed binder)
chain: B14 chain with N5T, D8H, N9E, D16F, H59R, M62I, I65L, T66Y
B16: D-domain SEQ ID NO: 78 (designed binder)
chain: B13 chain with K8R, A9S, S16N, T19R, Y58T, S59T
B17: D-domain SEQ ID NO: 85 (designed binder)
chain: B13 chain with V5N, K8E, A9D, E12S, S16A, T19S, Y66M
B18: D-domain SEQ ID NO: 81 (designed binder)
chain: B13 chain with V5A, K8Y, A9H, E12D, T19R, S59T, V65I
B19: D-domain SEQ ID NO: 95 (designed binder)
chain: MGSWSEFYDRLKAIADRLHALGGSEAELAAFEKEIAAFESELQAYKGKGNPEVEELRTEAAIIRVYLQAYRHN
B20: D-domain SEQ ID NO: 88 (designed binder)
chain: B13 chain with V5Y, K8S, A9M, E12S, S15W, S16E, T19H, S59Q, V65F
B21: D-domain SEQ ID NO: 93 (designed binder)
chain: B13 chain with V5E, K8D, A9R, E12Y, S15A, S16R, T19E, S59Q, Y66W
B22: D-domain SEQ ID NO: 195 (designed binder)
chain: MGSWVEFWDRLGAIRDRLDALGGSEAELAAFEKEIAAFESELQAYKGKGNPEVEELRNTAAYIRTFLQAYRHN
B23: D-domain SEQ ID NO: 196 (designed binder)
chain: B22 chain with V5S, D9V, E55A, N58V, Y62Q, T65H, F66Y
B24: D-domain SEQ ID NO: 97 (designed binder)
chain: B19 chain with S5V, Y8E, D9E, K12A, D16T, T58W, E59R
B25: D-domain SEQ ID NO: 99 (designed binder)
chain: B19 chain with S5T, Y8R, K12G, A15Y, D16H, H19D, T58Y, E59Q
B26: D-domain SEQ ID NO: 86 (designed binder)
chain: B13 chain with K8E, A9Y, E12V, S15F, S16D, T19Q, S59Q, Y66M
B27: D-domain SEQ ID NO: 73 (designed binder)
chain: B14 chain with N5V, D8Q, N9E, Q12M, W15S, H19Y, F58W, H59Q, I65Y
B28: D-domain SEQ ID NO: 185 (designed binder)
chain: B22 chain with D16E, D19Q, E55K, N58Y, Y62A, T65H, F66Y
B29: D-domain SEQ ID NO: 92 (designed binder)
chain: B13 chain with V5T, K8A, A9N, S15N, S16A, T19H, Y58F
B30: D-domain SEQ ID NO: 84 (designed binder)
chain: B13 chain with K8H, A9N, E12S, S16D, T19G, Y66M
B31: D-domain SEQ ID NO: 120 (designed binder)
chain: MGSWHEFYYRLEAIEQRLHALGGSEAELAAFEKEIAAFESELQAYKGKGNPEVETLRFDAALIRIYLQAYRHN
B32: D-domain SEQ ID NO: 101 (designed binder)
chain: B13 chain with K8Y, A9D, S15R, S16Y, T19S, S59I, L62V, V65Y, Y66R
B33: D-domain SEQ ID NO: 91 (designed binder)
chain: B13 chain with V5T, K8E, A9H, S15A, S16G, T19N, V65F, Y66W
B34: D-domain SEQ ID NO: 90 (designed binder)
chain: B13 chain with V5T, K8H, A9D, S15T, S16H, T19N, I63L, Y66F
B35: D-domain SEQ ID NO: 104 (designed binder)
chain: B19 chain with Y8S, K12H, A15S, H19Q, T58I, E59Q, Y66W
B36: D-domain SEQ ID NO: 193 (designed binder)
chain: B22 chain with D16E, D19E, E55K, N58Y, T59V, Y62V, T65H, F66R
B37: D-domain SEQ ID NO: 112 (designed binder)
chain: B14 chain with N5T, D8H, N9V, Q12S, H19V, M62I, T66V
B38: D-domain SEQ ID NO: 83 (designed binder)
chain: B13 chain with V5S, K8D, A9Q, E12A, S15Y, S16Q, T19N, Y66M
B39: D-domain SEQ ID NO: 194 (designed binder)
chain: B22 chain with D16E, D19Q, N58A, T59S, Y62A, T65I, F66A
B40: D-domain SEQ ID NO: 89 (designed binder)
chain: B13 chain with V5T, K8S, A9Q, E12G, S16E, T19Y, V65F, Y66M
B41: D-domain SEQ ID NO: 80 (designed binder)
chain: B31 chain with H5S, Y9T, E15N, Q16N, T55E, F58Y, D59T
B42: D-domain SEQ ID NO: 87 (designed binder)
chain: B13 chain with K8Q, A9G, E12G, S15H, S16E, T19Q, Y66F
B43: D-domain SEQ ID NO: 121 (designed binder)
chain: B31 chain with H5S, Y8E, Y9E, E12A, E15G, Q16S, H19F
B44: D-domain SEQ ID NO: 72 (designed binder)
chain: B13 chain with K8Q, A9D, S15T, S16D, T19Y, L62M, Y66I
B45: D-domain SEQ ID NO: 100 (designed binder)
chain: B13 chain with K8Y, A9H, S15R, S16Y, T19S, S59V, L62V, V65Y, Y66R
B46: D-domain SEQ ID NO: 111 (designed binder)
chain: B14 chain with N5T, N9H, Q12G, D16E, H19V, M62I, T66F
B47: D-domain SEQ ID NO: 103 (designed binder)
chain: B13 chain with V5E, K8S, A9E, S16I, T19R, Y58V, L62I, Y66W
B48: D-domain SEQ ID NO: 82 (designed binder)
chain: B13 chain with V5T, K8A, A9S, E12V, S15R, S16Q, T19Q, L62I, Y66M
B49: D-domain SEQ ID NO: 96 (designed binder)
chain: B19 chain with S5W, Y8E, K12S, A15M, D16E, T58Y, E59R
B50: D-domain SEQ ID NO: 94 (designed binder)
chain: B13 chain with V5I, K8H, A9Q, S15V, S16T, T19E, S59Q, Y66F

The binders below were run against T1, CD123 (assay: ELISA).
Design: unit not given here

Row | Binder | ELISA_avg
1 | B1 | 3.4
2 | B2 | 3.5
3 | B3 | 6.6
4 | B4 | 3.7
5 | B5 | 5.2
6 | B6 | 4.5
7 | B7 | 4.6
8 | B8 | 3.3
9 | B9 | 3.9
10 | B10 | 4.4
11 | B11 | 3.1
12 | B12 | 7

What follows are binders tested against T2, BCMA (assay: ELISA, format not described).
Design: unit not given here

Row | Binder | ELISA_avg
13 | B13 | 8.71
14 | B14 | 9.87
15 | B15 | 12.1
16 | B16 | 3.04
17 | B17 | 4.09
18 | B18 | 4.31
19 | B19 | 8.21
20 | B20 | 7.12
21 | B21 | 8.85
22 | B22 | 16
23 | B23 | 23.5
24 | B24 | 16.3
25 | B25 | 6.7
26 | B26 | 7.63
27 | B27 | 6.7
28 | B28 | 5.22
29 | B29 | 6.42
30 | B30 | 7.36
31 | B31 | 3.73

Row | Binder | ELISA_avg
32 | B32 | 5.64
33 | B33 | 6.34
34 | B34 | 5.79
35 | B35 | 6.37
36 | B36 | 4.18
37 | B37 | 23.6
38 | B38 | 7.72
39 | B39 | 3.07
40 | B40 | 4.15
41 | B41 | 3.66
42 | B42 | 3.83
43 | B43 | 4.85
44 | B44 | 8.88
45 | B45 | 7.8
46 | B46 | 9.54
47 | B47 | 11.3
48 | B48 | 7.99
49 | B49 | 10.4
50 | B50 | 8
